The source of these data is publication PMC1238745 (2005).

What all share (experiment): NMR
For one experiment, the target named is T1, Bax BH3 peptide BH3 (Homo sapiens, UniProt Q07812).
T1 chain: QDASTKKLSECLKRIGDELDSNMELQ

For another experiment, the target named is T2, Bak BH3 peptide BH3 (Homo sapiens, UniProt Q16611).
T2 chain: GQVGRQLAIIGDDINR

Another experiment deals with T3, Bad BH3 peptide BH3 (Homo sapiens, UniProt Q92934).
T3 chain: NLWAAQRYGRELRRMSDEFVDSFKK

B1: v-Bcl-2 (protein)
chain: MSHKKSGTYWATLITAFLKTVSKVEELDCVDSAVLVDVSKIITLTQEFRRHYDSVYRADYGPALKNWKRDLSKLFTSLFVDVINSGRIVGFFDVGRYVCEEVLCPGSWTEDHELLNDCMTHFFIENNLMNHFPLEDIFLAQRKFQTTGFTFLLHALAKVLPRIYSGNVIYV
For B1, the Kd was under 5 µM in the experiment with Bax BH3 peptide BH3, under 5 µM with Bak BH3 peptide BH3 and over 300 µM with Bad BH3 peptide BH3.

As usually defined, the Kd is the free concentration of one partner at which half of the binding sites on the other are occupied at equilibrium, for simple one-to-one binding. Higher therefore signals a looser complex.
